Assay [1] addresses cone-specific G-protein transducin alpha subunit employed as a Gtα/Giα chimera, non-myristoylated (European robin). Nature of the assay: SPR; Biacore 3000, CM5 chip, amine coupling; Gtα/Giα immobilised, ErCry4a 5-100 nM (and 500 nM) injected; global fit with a two-state-reaction model; 10 mM HEPES/NaOH pH 7.4, 150 mM NaCl, 10 mM MgCl2, 0.005% Tween-20, 3.4 mM EDTA.
The target in assay [2] is Gtα-EYFP (cone transducin alpha subunit, GNAT2, with C-terminal EYFP) (European robin). In words: FRET or BRET; acceptor photobleaching FRET in transiently transfected, fixed QNR/K2 quail neuroretina cells; donor mTurquoise on ErCry4a, acceptor EYFP; confocal microscope, FRET efficiency (Dpost - Dpre)/Dpost.

As to “European robin cryptochrome 4a (ErCry4a), purified recombinant (natural protein)”, in assay [1], the Kd was 19.8 nM, the ka1 (two-state-reaction model) worked out at 221000 M⁻¹ s⁻¹ and the kd1 (two-state-reaction model) turned out to be 0.00438 s⁻¹.
In the case of “mTurquoise-ErCry4a (N-terminally tagged ErCry4a) (natural protein)”, the mean FRET efficiency in assay [2] stood at 24.5%.

(Values after publication PMC11569197.)
